This note sets out measurements from patent US20080287363A1 (LABORATOIRES SERONO, published 2008).

The target of the assay is recombinant Δ6 evasin-4 (truncated, N-terminally 6His tagged evasin-4, amino acids 24-127), purified (Rhipicephalus sanguineus). The assay can be described thus: SPR (Biacore 3000), Δ6 evasin-4 immobilized on CM4 chip, chemokine injected.

B1: CCL13/MCP-4 (ligand)
chain: not shown
For the molecule B1, the binding result is recorded as “no binding (tested: 0.1 µg/ml)”.

B2: XCL1/lymphotactin (ligand)
chain: VGSEVSDKRTCVSLTTQRLPVSRIKTYTITEGSLRAVIFITKRGLKVCADPQATWVRDVVRSMDRKSNTRNNMIQTKPTGTQQSTNTAVTLTG
Take B2: the binding result is reported as “no binding (tested: 0.1 µg/ml)”.
